Test results as given in the supplement of paper PMC9876800.

Test system: peptide library, one residue held at a place counted from the S/T acceptor
Assay: relative phosphorylation of the sub-library (ratio to the mean residue at this position); higher = residue favoured
Settings: human
How it was run: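 Purified recombinant kinases were reacted in 384-well plates with biotinylated degenerate peptide sub-libraries, each having one residue fixed at one position around a central Ser/Thr. The reaction mix contained 50 μM peptide plus 50 μM ATP spiked with γ-32P-ATP and ran for 90 min under kinase-specific conditions. Relative sub-library phosphorylation, taken from densitometry of phosphorimaged streptavidin membrane spots, is a ratio to the mean residue at that position.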

Sequence of CAMK1D, construct: Full length (Q8IU85 whole entry, looked up): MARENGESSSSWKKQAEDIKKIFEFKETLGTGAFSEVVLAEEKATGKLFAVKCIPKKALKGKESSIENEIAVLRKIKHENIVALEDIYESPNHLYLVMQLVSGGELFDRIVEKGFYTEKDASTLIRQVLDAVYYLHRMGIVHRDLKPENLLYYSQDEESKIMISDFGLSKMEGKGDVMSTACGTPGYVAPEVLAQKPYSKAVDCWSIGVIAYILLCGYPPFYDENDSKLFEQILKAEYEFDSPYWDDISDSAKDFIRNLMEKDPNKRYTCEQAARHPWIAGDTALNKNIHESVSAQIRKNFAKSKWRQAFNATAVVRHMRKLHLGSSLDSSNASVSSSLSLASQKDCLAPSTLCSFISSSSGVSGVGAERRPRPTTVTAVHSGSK
Sequence of CDK13, construct: aa694-1039 (Q14004 694-1039, looked up): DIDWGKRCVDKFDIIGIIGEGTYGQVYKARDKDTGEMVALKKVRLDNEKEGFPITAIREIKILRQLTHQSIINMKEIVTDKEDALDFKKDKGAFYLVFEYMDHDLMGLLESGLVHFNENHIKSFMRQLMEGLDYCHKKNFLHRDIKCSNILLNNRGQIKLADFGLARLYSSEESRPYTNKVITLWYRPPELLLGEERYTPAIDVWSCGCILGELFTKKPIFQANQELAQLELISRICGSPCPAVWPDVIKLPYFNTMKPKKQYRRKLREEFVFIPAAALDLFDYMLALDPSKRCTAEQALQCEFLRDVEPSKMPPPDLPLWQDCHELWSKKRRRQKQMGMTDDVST
Sequence of CAMKK1, construct: aa124-411 (Q8N5S9 124-411, looked up): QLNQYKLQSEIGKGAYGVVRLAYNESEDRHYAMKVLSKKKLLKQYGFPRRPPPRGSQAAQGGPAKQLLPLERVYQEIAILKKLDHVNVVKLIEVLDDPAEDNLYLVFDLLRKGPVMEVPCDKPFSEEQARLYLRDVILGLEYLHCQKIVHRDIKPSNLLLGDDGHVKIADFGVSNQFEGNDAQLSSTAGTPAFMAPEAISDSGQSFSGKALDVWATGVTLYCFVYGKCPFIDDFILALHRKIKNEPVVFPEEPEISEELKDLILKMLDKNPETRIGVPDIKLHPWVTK
Sequence of CAMKK2, construct: Full length (Q96RR4 whole entry, looked up): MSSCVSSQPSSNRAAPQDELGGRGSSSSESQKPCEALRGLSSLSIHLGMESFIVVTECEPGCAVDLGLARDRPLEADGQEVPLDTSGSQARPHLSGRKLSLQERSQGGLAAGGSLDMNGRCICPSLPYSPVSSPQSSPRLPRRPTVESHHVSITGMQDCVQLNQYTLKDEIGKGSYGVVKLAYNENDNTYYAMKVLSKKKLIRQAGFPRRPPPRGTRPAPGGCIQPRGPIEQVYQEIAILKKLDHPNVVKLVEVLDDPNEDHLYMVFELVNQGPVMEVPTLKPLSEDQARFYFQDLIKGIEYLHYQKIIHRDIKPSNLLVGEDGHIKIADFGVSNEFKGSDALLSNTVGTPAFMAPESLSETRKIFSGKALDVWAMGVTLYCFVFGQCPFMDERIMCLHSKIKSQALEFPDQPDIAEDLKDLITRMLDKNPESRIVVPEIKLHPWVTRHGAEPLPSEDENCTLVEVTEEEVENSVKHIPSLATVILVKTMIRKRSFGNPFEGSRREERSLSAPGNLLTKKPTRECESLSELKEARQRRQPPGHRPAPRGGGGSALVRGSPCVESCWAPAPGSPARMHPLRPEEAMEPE

CAMK1D, construct: Full length (from UniProt Q8IU85)
relative phosphorylation
Settings | at +1 | at +2 | at +3 | at +4 | at -1 | at -2 | at -3 | at -4 | at -5
A fixed | 0.771 | 0.831 | 0.729 | 0.681 | 0.791 | 0.914 | 0.52 | 0.782 | 0.533
D fixed | 0.658 | 1.06 | 1.35 | 0.996 | 0.975 | 0.373 | 0.154 | 0.438 | 0.269
E fixed | 0.811 | 1.22 | 1.15 | 0.974 | 0.646 | 0.504 | 0.22 | 0.784 | 0.252
F fixed | 1.75 | 1.14 | 1.17 | 1.39 | 0.597 | 0.446 | 0.631 | 0.724 | 1.38
G fixed | 0.761 | 0.625 | 0.956 | 0.822 | 0.793 | 0.772 | 0.287 | 0.698 | 0.564
H fixed | 1.03 | 1.47 | 1.34 | 0.936 | 1.35 | 0.962 | 0.964 | 0.955 | 0.787
I fixed | 0.665 | 0.881 | 0.722 | 1.35 | 0.475 | 0.37 | 0.132 | 0.815 | 1.31
K fixed | 1.26 | 0.591 | 0.717 | 0.675 | 1.9 | 1.95 | 2.7 | 2.58 | 0.999
L fixed | 0.744 | 1.06 | 0.892 | 1.39 | 0.759 | 0.526 | 0.164 | 0.886 | 2.33
M fixed | 1.01 | 0.846 | 0.854 | 1.51 | 0.824 | 1.09 | 0.238 | 0.995 | 1.35
N fixed | 1.29 | 1.3 | 1.44 | 1.01 | 1.85 | 0.965 | 0.414 | 0.923 | 0.594
P fixed | 0.237 | 0.753 | 0.786 | 1.12 | 1.41 | 0.311 | 0.389 | 0.63 | 1.19
Q fixed | 1.68 | 1.14 | 1.07 | 0.969 | 1.28 | 2.08 | 0.63 | 1.06 | 0.905
R fixed | 1.62 | 0.7 | 0.785 | 0.616 | 1.5 | 3.51 | 8.75 | 2.35 | 1.85
V fixed | 0.747 | 0.736 | 0.627 | 0.746 | 0.523 | 0.448 | 0.153 | 0.883 | 0.752
W fixed | 0.971 | 1.3 | 1.34 | 0.973 | 0.486 | 1.13 | 0.395 | 0.706 | 0.977
Y fixed | 0.988 | 1.35 | 1.07 | 0.833 | 0.834 | 0.656 | 0.263 | 0.789 | 0.961
pThr fixed | 0.967 | 0.874 | 0.756 | 1.2 | 0.312 | 0.312 | 0.221 | 0.486 | 0.375
pTyr fixed | 0.844 | 2.75 | 1.25 | 0.949 | 0.739 | 0.291 | 0.205 | 0.431 | 0.739

CAMKK1, construct: aa124-411 (from UniProt Q8N5S9)
relative phosphorylation
Settings | at +1 | at +2 | at +3 | at +4 | at -1 | at -2 | at -3 | at -4 | at -5
A fixed | 0.901 | 0.973 | 0.903 | 0.897 | 1.05 | 0.46 | 1.22 | 1.1 | 1.33
D fixed | 0.614 | 0.968 | 0.958 | 1.06 | 1.05 | 0.445 | 0.426 | 1.26 | 1.18
E fixed | 0.644 | 0.723 | 0.891 | 1.05 | 1.31 | 0.348 | 0.461 | 1.18 | 1.06
F fixed | 0.858 | 0.802 | 0.751 | 0.774 | 0.629 | 1.59 | 1.36 | 1.02 | 0.853
G fixed | 0.83 | 0.897 | 1.14 | 1.2 | 0.7 | 0.458 | 0.757 | 1.18 | 1.32
H fixed | 1.31 | 1.44 | 1.24 | 1.12 | 1.06 | 0.949 | 1.12 | 1.06 | 1.05
I fixed | 1.06 | 0.725 | 0.597 | 0.612 | 0.645 | 0.756 | 1.18 | 0.675 | 0.687
K fixed | 0.907 | 0.997 | 1.27 | 1.18 | 1.05 | 0.463 | 0.443 | 0.806 | 1.18
L fixed | 1.12 | 0.703 | 0.657 | 0.76 | 1.14 | 2.71 | 1.29 | 0.811 | 0.605
M fixed | 1.37 | 0.901 | 0.797 | 0.845 | 1.27 | 2.52 | 2.16 | 0.82 | 0.901
N fixed | 1.21 | 1.11 | 1.2 | 1.25 | 1.21 | 0.811 | 0.832 | 1.03 | 1.04
P fixed | 0.157 | 0.927 | 1.2 | 1.29 | 0.192 | 0.229 | 1.05 | 0.96 | 1.21
Q fixed | 1.33 | 1.08 | 1.15 | 1.14 | 1.51 | 0.696 | 0.872 | 0.955 | 0.863
R fixed | 1.31 | 1.57 | 1.49 | 1.23 | 1.75 | 0.633 | 0.583 | 0.791 | 1.13
V fixed | 1.06 | 0.865 | 0.702 | 0.628 | 0.696 | 0.594 | 1.04 | 0.83 | 0.786
W fixed | 1.01 | 0.968 | 0.975 | 1.13 | 0.718 | 0.668 | 1.03 | 1.59 | 0.906
Y fixed | 1.31 | 1.36 | 1.08 | 0.848 | 1.02 | 2.67 | 1.18 | 0.926 | 0.903
pThr fixed | 0.793 | 0.982 | 0.885 | 0.852 | 0.508 | 0.624 | 0.842 | 0.969 | 0.9
pTyr fixed | 0.907 | 0.947 | 1.01 | 0.925 | 1.28 | 0.668 | 0.726 | 0.838 | 0.979

CAMKK2, construct: Full length (from UniProt Q96RR4)
relative phosphorylation
Settings | at +1 | at +2 | at +3 | at +4 | at -1 | at -2 | at -3 | at -4 | at -5
A fixed | 1.16 | 0.999 | 0.931 | 0.783 | 1.27 | 0.476 | 1.17 | 0.993 | 1.31
D fixed | 0.612 | 1.03 | 1.09 | 1.14 | 1.17 | 0.349 | 0.289 | 0.949 | 1.02
E fixed | 0.647 | 0.701 | 0.995 | 0.774 | 1.24 | 0.313 | 0.317 | 0.905 | 0.843
F fixed | 0.787 | 0.602 | 0.861 | 1.12 | 0.671 | 1.91 | 1.44 | 0.939 | 0.93
G fixed | 0.848 | 1.24 | 1.36 | 1.09 | 0.731 | 0.434 | 0.846 | 1.11 | 1.29
H fixed | 0.46 | 1.21 | 0.888 | 1.1 | 0.934 | 0.748 | 1.23 | 1.15 | 1.09
I fixed | 1.27 | 0.734 | 0.702 | 0.589 | 0.46 | 0.558 | 0.672 | 0.481 | 0.529
K fixed | 1.03 | 1.04 | 0.971 | 1.18 | 1.6 | 0.629 | 0.567 | 0.887 | 1.02
L fixed | 1.1 | 0.786 | 0.783 | 0.953 | 0.974 | 2.57 | 0.981 | 0.762 | 0.561
M fixed | 1.92 | 1.14 | 0.834 | 0.979 | 1.2 | 2.46 | 1.65 | 1.04 | 0.887
N fixed | 1.02 | 1.4 | 1.22 | 0.991 | 1.15 | 0.594 | 0.66 | 0.95 | 0.917
P fixed | 0.328 | 1.26 | 1.61 | 1.64 | 0.268 | 0.363 | 1.48 | 0.931 | 1.29
Q fixed | 1.07 | 0.937 | 1.05 | 1.09 | 1.6 | 0.727 | 1.09 | 1.05 | 1.08
R fixed | 1.18 | 1.32 | 1.04 | 0.852 | 1.65 | 0.885 | 0.856 | 1.11 | 1.21
V fixed | 1.19 | 0.93 | 0.706 | 0.884 | 0.601 | 0.548 | 0.953 | 0.583 | 0.753
W fixed | 1.22 | 0.742 | 0.971 | 0.981 | 0.693 | 0.873 | 1.48 | 1.79 | 1.25
Y fixed | 1.18 | 0.927 | 0.988 | 0.861 | 0.786 | 2.56 | 1.32 | 1.37 | 1.02
pThr fixed | 0.769 | 0.87 | 1.03 | 1.14 | 0.432 | 0.493 | 0.711 | 0.711 | 0.884
pTyr fixed | 0.827 | 0.75 | 1.43 | 1.09 | 0.973 | 0.634 | 0.525 | 0.831 | 0.776

CDK13, construct: aa694-1039 (from UniProt Q14004)
relative phosphorylation
Settings | at +1 | at +2 | at +3 | at +4 | at -1 | at -2 | at -3 | at -4 | at -5
A fixed | 0.344 | 0.946 | 0.818 | 0.867 | 1.13 | 1.18 | 1.03 | 1.07 | 1.13
D fixed | 0.22 | 0.631 | 0.449 | 1.07 | 0.485 | 0.477 | 0.742 | 0.927 | 0.951
E fixed | 0.222 | 0.569 | 0.42 | 0.973 | 0.492 | 0.515 | 0.76 | 0.983 | 0.817
F fixed | 0.319 | 1.03 | 0.579 | 0.816 | 0.876 | 0.712 | 0.85 | 1.17 | 1.23
G fixed | 0.908 | 1.27 | 0.797 | 1.33 | 1.45 | 1.77 | 2.11 | 1.16 | 0.982
H fixed | 0.301 | 1.17 | 1.71 | 1.44 | 0.893 | 0.831 | 0.889 | 1.02 | 1.1
I fixed | 0.293 | 0.835 | 0.822 | 0.746 | 0.382 | 0.933 | 0.995 | 0.868 | 0.933
K fixed | 0.307 | 1.31 | 0.993 | 0.893 | 1.12 | 0.542 | 0.581 | 0.846 | 0.837
L fixed | 0.348 | 0.845 | 0.558 | 0.743 | 0.845 | 1.03 | 0.922 | 0.953 | 0.923
M fixed | 0.336 | 1.11 | 0.506 | 0.824 | 1.64 | 1.31 | 0.965 | 1.01 | 0.855
N fixed | 0.305 | 1.02 | 0.739 | 1.01 | 0.968 | 0.685 | 0.696 | 0.889 | 0.784
P fixed | 11.6 | 0.82 | 1.41 | 0.98 | 1.02 | 1.71 | 1.44 | 1.15 | 1.17
Q fixed | 0.287 | 0.8 | 0.764 | 0.903 | 1.18 | 0.736 | 0.672 | 0.753 | 0.933
R fixed | 0.315 | 1.7 | 4.1 | 0.956 | 1.68 | 1.16 | 1.2 | 0.861 | 0.898
V fixed | 0.315 | 0.812 | 0.717 | 0.779 | 0.511 | 0.942 | 0.877 | 0.825 | 0.929
W fixed | 0.306 | 0.937 | 0.82 | 1.59 | 1.23 | 1.43 | 1.07 | 1.4 | 1.24
Y fixed | 0.306 | 1.2 | 0.801 | 1.09 | 1.09 | 1.03 | 1.2 | 1.11 | 1.27
pThr fixed | 0.386 | 0.581 | 0.553 | 1.13 | 0.349 | 0.479 | 0.922 | 0.831 | 1.02
pTyr fixed | 0.405 | 0.576 | 0.702 | 1.27 | 1.16 | 0.698 | 0.88 | 0.961 | 0.865
